Patent US20230322924A1 (Janssen / Centocor, published 2023)
Read-outs that look alike come from different tables or passages of the source.

Columns and labels:
[1] = target: Cyno CD3e (cynomolgus monkey, UniProt Q95LI5 22-198); assay: cell-based or functional assay
[2] = target: Cyno CD33 full length (cynomolgus monkey); assay: cell-based or functional assay
[3] = target: T1, Human CD33 full length (human, UniProt P20138 18-364); assay: cell-based or functional assay
[4] = target: T1, Human CD33 full length; assay: cell-based or functional assay; remark: listed apart in the source
[5] = target: T2, chimpanzee PSMA on HEK cells (chimpanzee, UniProt H2Q3K5 1-750); assay: flow cytometry, mammalian Fab supernatant on chimp-PSMA HEK cells (PSMG9), anti-human kappa-RPE
T2 construct: also called chimp-PSMA HEK; PSMG9
T2 sequence (H2Q3K5 entry or part of it limits assumed): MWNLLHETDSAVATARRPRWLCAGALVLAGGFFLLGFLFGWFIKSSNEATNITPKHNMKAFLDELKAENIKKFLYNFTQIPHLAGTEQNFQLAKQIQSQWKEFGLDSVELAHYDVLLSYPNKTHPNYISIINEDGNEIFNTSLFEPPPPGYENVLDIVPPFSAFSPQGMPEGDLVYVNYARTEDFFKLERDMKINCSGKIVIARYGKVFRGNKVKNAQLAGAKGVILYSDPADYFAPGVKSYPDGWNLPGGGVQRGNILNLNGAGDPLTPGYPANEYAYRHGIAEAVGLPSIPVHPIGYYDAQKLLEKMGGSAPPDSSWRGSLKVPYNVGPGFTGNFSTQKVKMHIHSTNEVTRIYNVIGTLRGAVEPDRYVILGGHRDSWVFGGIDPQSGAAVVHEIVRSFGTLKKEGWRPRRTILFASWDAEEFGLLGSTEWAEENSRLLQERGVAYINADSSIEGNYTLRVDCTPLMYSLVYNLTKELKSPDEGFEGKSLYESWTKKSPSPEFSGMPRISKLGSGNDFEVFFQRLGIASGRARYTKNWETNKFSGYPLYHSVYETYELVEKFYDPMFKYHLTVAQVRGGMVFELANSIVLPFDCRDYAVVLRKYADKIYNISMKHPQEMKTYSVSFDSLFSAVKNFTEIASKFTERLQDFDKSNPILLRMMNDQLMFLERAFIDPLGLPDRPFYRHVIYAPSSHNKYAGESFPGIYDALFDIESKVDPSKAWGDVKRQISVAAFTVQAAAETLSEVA
Protocol: (§1) Individual Fab clones were isolated from the round 3 output of all panning experiments following pIX excision. Fab clones were tested for binding to chimp and cyno PSMA expressing HEK cells, as well as to human PSMA on LNCaP cells. Briefly, PSMA expressing cells were aliquoted into a V-bottom plate (CoStar 3357) at a density of 200,000 per well and incubated with (100 μl) supernatants expressing Fab fragments for 1 hour on ice. Cells were washed twice with PBS containing 2% FBS, and stained with a mouse anti-human kappa-RPE antibody (Life Technologies cat #MH10514) for 1 hour on ice. Cells were washed twice with PBS containing 2% FBS and resuspended in […] of the same wash buffer. Plates were read on a BD FACS Array flow cytometer. FACS data was analyzed in FlowJo software by live gating the healthy population of cells using forward scatter and side scatter, and then analyzing the cells within this gate for PE staining. Mean fluorescence intensity (MFI) was calculated and exported into Microsoft Excel. […] Fabs were sequenced and moved forward for cloning into mammalian expression vector for rescreening. True positives were selected from the binding of mammalian cell expressed Fab supernatants to PSMA-expressing cell lines.
(§2) FIGS. 22A, 22B, 22C and 22D show the titration curves for anti-PSMA panning hits vs. LNCaP cells. […]

[6] = target: T3, human PSMA on cells (LNCaP) (human, UniProt Q04609 1-750); assay: flow cytometry, mammalian Fab supernatant on LNCaP cells, anti-human kappa-RPE
T3 construct: whole, on cells; also called LNCaP cells
T3 sequence (Q04609 whole entry): as the sequence (H2Q3K5 entry or part of it limits assumed) above, with L155S, H281R, Y475H, N613S, T647S, L660V, D727E, S733Y counted along it
Protocol: as §1
FIGS. 22A, 22B, 22C and 22D show the titration curves for anti-PSMA panning hits vs. LNCaP cells. […] Binding profiles among hits were compared across cell lines expressing different species of PSMA.

[7] = target: T2, chimpanzee PSMA on HEK cells; assay: flow cytometry, mammalian Fab supernatant on chimp-PSMA HEK cells (PSMG9), anti-human kappa-RPE; remark: listed apart in the source
Protocol: as §1, §2

[8] = target: human IL1RAP on NCI-H1975 cells (human); assay: cell-based or functional assay
[9] = target: T4, human IL1RAP (interleukin-1 receptor accessory protein) on LAMA-84 cells (human); assay: cell-based or functional assay
[10] = target: T4, human IL1RAP (interleukin-1 receptor …); assay: cell-based or functional assay; remark: listed apart in the source

T1 sequence (P20138 18-364 limits assumed): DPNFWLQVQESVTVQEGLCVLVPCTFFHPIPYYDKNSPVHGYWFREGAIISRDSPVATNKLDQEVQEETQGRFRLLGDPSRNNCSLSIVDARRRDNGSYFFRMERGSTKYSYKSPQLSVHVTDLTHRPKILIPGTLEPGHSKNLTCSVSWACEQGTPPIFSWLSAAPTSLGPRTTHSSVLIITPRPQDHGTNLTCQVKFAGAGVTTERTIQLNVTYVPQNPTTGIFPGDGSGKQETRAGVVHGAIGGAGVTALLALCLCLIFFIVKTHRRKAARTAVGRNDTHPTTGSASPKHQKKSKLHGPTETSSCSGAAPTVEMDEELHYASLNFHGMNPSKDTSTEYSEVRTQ
Chain of Cyno CD3e (Q95LI5 22-198): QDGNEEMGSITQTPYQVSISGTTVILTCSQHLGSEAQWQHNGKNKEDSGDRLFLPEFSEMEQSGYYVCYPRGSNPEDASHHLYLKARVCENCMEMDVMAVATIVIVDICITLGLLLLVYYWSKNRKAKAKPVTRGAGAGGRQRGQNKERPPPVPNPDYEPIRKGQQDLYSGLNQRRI

B1: C3CB189 (bispecific antibody, IgG4, V domains shown)
VH 1: EVQLVESGGGLVQPGRSLRLSCAASGFTFDDYAMHWVRQAPGKGLEWVSGIGWSGGSIVYADSVKGRFTISRDNAKNSLYLQMNSLRAEDTALYYCAKDSPYGDFFDYWGQGTLVTVSS
VL 1: DIVMTQSPDSLAVSLGERATINCKSSQTVFYSSNNKNYLAWYQQKPGQPPKLLISWASTRKSGVPDRFSGSGSGTDFTLTVSSLQAEDVAVYYCQHYYSTPYTFGQGTKLEIK
VH 2: QVQLQQSGPRLVRPSQTLSLTCAISGDSVFNNNAAWSWIRQSPSRGLEWLGRTYYRSKWLYDYAVSVKSRITVNPDTSRNQFTLQLNSVTPEDTALYYCARGYSSSFDYWGQGTLVTVSS
VL 2: QSALTQPASVSGSPGQSITISCTGTSSNIGTYKFVSWYQQHPDKAPKVLLYEVSKRPSGVSSRFSGSKSGNTASLTISGLQAEDQADYHCVSYAGSGTLLFGGGTKLTVL
Which “T cell activation EC50” value [1] does the source give for B1 here?
The value was 20 pM.

And the “CD33^+ CD14^+ Killing EC50” value [2]?
Its value is 3600 pM.

What about the “Primary AML Cell Killing EC50” value [3] of the same binder?
The value was 578 pM.

And the “CD33^+ CD14^+ Killing EC50” value [4]?
The value was 1160 pM.

What about the “MOLM13 Killing EC50” value [4] of the same binder?
The value was 168 pM.

B2: PSMM87 (Fab, V domains shown)
VH: QVQLVQSGAEVKKPGSSVKVSCKASGGTFKSYDISWVRQAPGQGLEWMGGIIPIEGTANYAQKFQGRVTITADESTSTAYMELSSLRSEDTAVYYCARDYPAGYGFDYWGQGTLVTVSS
VL: not shown
notes: Mammalian Fab supernatant; also called PSMB86
With B2 as the binder, how does the “EC50 (read off the curve)” value [5] read?
Its value is ~0.4 µg/mL.

And the “EC50 (read off the curve)” value [6]?
Its value is ~0.2 µg/mL.

B3: PSMM18 (Fab, V domains shown)
VH: EVQLVQSGAEVKKPGESLKISCKGSGYSFTSYWIGWVRQMPGKGLEWMGIIYPGDSDTRYSPSFQGQVTISADKSISTAYLQWSSLKASDTAMYYCARAYHYSKGLDYWGQGTLVTVSS
VL: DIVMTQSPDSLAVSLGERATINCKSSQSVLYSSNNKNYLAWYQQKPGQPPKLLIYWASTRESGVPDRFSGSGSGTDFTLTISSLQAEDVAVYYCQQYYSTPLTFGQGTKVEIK
notes: Mammalian Fab supernatant; also called PSMB18
With B3 as the binder, how does the “EC50 (read off the curve)” value [7] read?
The value was ~0.3 µg/mL.

Does B3 bind [6]?
Result: binds

B4: IC3B19 (bispecific antibody, human IgG4 S228P, kappa, F234A L235A)
heavy: not shown
light: DIQLTQSPSFLSASVGDRVTITCRASQGISSYLAWYQQKPGKAPKLLIYAASTLQSGVPSRFSGSGSGTEFTLTISSLQPEDFATYYCQQVNSYPLTFGGGTKVEIKRTVAAPSVFIFPPSDEQLKSGTASVVCLLNNFYPREAKVQWKVDNALQSGNSQESVTEQDSKDSTYSLSSTLTLSKADYEKHKVYACEVTHQGLSSPVTKSFNRGEC
VH: EVQLVESGGGLVQPGGSLRLSCAASGFTFNTYAMNWVRQAPGKGLEWVARIRSKYNNYATYYAASVKGRFTISRDDSKNSLYLQMNSLKTEDTAVYYCARHGNFGNSYVSWFAYWGQGTLVTVSS
VL: QTVVTQEPSLTVSPGGTVTLTCRSSTGAVTTSNYANWVQQKPGQAPRGLIGGTNKRAPGTPARFSGSLLGGKAALTLSGVQPEDEAEYYCALWYSNLWVFGGGTKLTVL
Which “cytotoxicity EC50, caspase 3/7 assay, NCI-H1975 cells with pan T cells” value [8] does the source give for B4 here?
Its value is 18 pM.

B5: IC3B19 (IAPB57×CD3B219) IL1RAP×CD3 bispecific antibody (bispecific antibody, human IgG4 S228P, kappa, F234A L235A)
heavy: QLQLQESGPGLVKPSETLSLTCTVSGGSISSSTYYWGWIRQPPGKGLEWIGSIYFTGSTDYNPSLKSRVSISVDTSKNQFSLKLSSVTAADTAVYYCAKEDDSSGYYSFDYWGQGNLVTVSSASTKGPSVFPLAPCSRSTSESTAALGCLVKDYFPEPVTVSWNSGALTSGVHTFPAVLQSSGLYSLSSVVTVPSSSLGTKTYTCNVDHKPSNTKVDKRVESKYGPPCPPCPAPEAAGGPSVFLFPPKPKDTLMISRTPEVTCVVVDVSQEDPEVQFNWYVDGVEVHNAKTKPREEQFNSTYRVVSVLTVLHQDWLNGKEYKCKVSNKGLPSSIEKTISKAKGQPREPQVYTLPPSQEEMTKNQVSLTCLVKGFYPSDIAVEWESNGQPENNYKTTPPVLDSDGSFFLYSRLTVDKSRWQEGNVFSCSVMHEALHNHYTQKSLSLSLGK
light: DIQLTQSPSFLSASVGDRVTITCRASQGISSYLAWYQQKPGKAPKLLIYAASTLQSGVPSRFSGSGSGTEFTLTISSLQPEDFATYYCQQVNSYPLTFGGGTKVEIKRTVAAPSVFIFPPSDEQLKSGTASVVCLLNNFYPREAKVQWKVDNALQSGNSQESVTEQDSKDSTYSLSSTLTLSKADYEKHKVYACEVTHQGLSSPVTKSFNRGEC
VH: EVQLVESGGGLVQPGGSLRLSCAASGFTFNTYAMNWVRQAPGKGLEWVARIRSKYNNYATYYAASVKGRFTISRDDSKNSLYLQMNSLKTEDTAVYYCARHGNFGNSYVSWFAYWGQGTLVTVSS
VL: QTVVTQEPSLTVSPGGTVTLTCRSSTGAVTTSNYANWVQQKPGQAPRGLIGGTNKRAPGTPARFSGSLLGGKAALTLSGVQPEDEAEYYCALWYSNLWVFGGGTKLTVL
B5 was tested. Which “T-cell Activation EC50 (nM) (CD25), LAMA-84 cell line, whole blood assay, 48 h” value [9] did it give?
The value was 4.24 nM.

What about the “Cytotoxicity EC50 (nM), LAMA-84 cell line, whole blood T cell cytotoxicity assay, 48 h” value [10] of the same binder?
The value was 2.1 nM.

B6: IC3B34 (IAPB57×CD3B376) IL1RAP×CD3 bispecific antibody (bispecific antibody, human IgG4 S228P, kappa, lambda, F234A L235A)
heavy 1: not shown
light 1: DIQLTQSPSFLSASVGDRVTITCRASQGISSYLAWYQQKPGKAPKLLIYAASTLQSGVPSRFSGSGSGTEFTLTISSLQPEDFATYYCQQVNSYPLTFGGGTKVEIKRTVAAPSVFIFPPSDEQLKSGTASVVCLLNNFYPREAKVQWKVDNALQSGNSQESVTEQDSKDSTYSLSSTLTLSKADYEKHKVYACEVTHQGLSSPVTKSFNRGEC
heavy 2: QVQLQQSGPRLVRPSQTLSLTCAISGDSVFNNNAAWSWIRQSPSRGLEWLGRTYYRSKWLYDYAVSVKSRITVNPDTSRNQFTLQLNSVTPEDTALYYCARGYSSSFDYWGQGTLVTVSSASTKGPSVFPLAPCSRSTSESTAALGCLVKDYFPEPVTVSWNSGALTSGVHTFPAVLQSSGLYSLSSVVTVPSSSLGTKTYTCNVDHKPSNTKVDKRVESKYGPPCPPCPAPEAAGGPSVFLFPPKPKDTLMISRTPEVTCVVVDVSQEDPEVQFNWYVDGVEVHNAKTKPREEQFNSTYRVVSVLTVLHQDWLNGKEYKCKVSNKGLPSSIEKTISKAKGQPREPQVYTLPPSQEEMTKNQVSLTCLVKGFYPSDIAVEWESNGQPENNYKTTPPVLDSDGSFLLYSKLTVDKSRWQEGNVFSCSVMHEALHNHYTQKSLSLSLGK
light 2: QSALTQPASVSGSPGQSITISCTGTSSNIGTYKFVSWYQQHPDKAPKVLLYEVSKRPSGVSSRFSGSKSGNTASLTISGLQAEDQADYHCVSYAGSGTLLFGGGTKLTVLGQPKAAPSVTLFPPSSEELQANKATLVCLISDFYPGAVTVAWKADSSPVKAGVETTTPSKQSNNKYAASSYLSLTPEQWKSHRSYSCQVTHEGSTVEKTVAPTECS
Which results are given for B6?
T-cell Activation EC50 (nM) (CD25), LAMA-84 cell line, whole blood assay, 48 h [9]: 7.83 nM; Cytotoxicity EC50 (nM), LAMA-84 cell line, whole blood T cell cytotoxicity assay, 48 h [10]: 2.76 nM

B7: IC3B34 (bispecific antibody, human IgG4 S228P, kappa, F234A L235A)
heavy: not shown
light: DIQLTQSPSFLSASVGDRVTITCRASQGISSYLAWYQQKPGKAPKLLIYAASTLQSGVPSRFSGSGSGTEFTLTISSLQPEDFATYYCQQVNSYPLTFGGGTKVEIKRTVAAPSVFIFPPSDEQLKSGTASVVCLLNNFYPREAKVQWKVDNALQSGNSQESVTEQDSKDSTYSLSSTLTLSKADYEKHKVYACEVTHQGLSSPVTKSFNRGEC
VH: QVQLQQSGPRLVRPSQTLSLTCAISGDSVFNNNAAWSWIRQSPSRGLEWLGRTYYRSKWLYDYAVSVKSRITVNPDTSRNQFTLQLNSVTPEDTALYYCARGYSSSFDYWGQGTLVTVSS
VL: QSALTQPASVSGSPGQSITISCTGTSSNIGTYKFVSWYQQHPDKAPKVLLYEVSKRPSGVSSRFSGSKSGNTASLTISGLQAEDQADYHCVSYAGSGTLLFGGGTKLTVL
B7 was tested. Which “cytotoxicity EC50, caspase 3/7 assay, NCI-H1975 cells with pan T cells” value [8] did it give?
The value was 57 pM.

B8: C3CB88 (bispecific antibody, IgG4, V domains shown)
VH 1: EVQLVESGGGLVQPGRSLRLSCAASGFTFDDYAMHWVRQAPGKGLEWVSGIGWSGGSIVYADSVKGRFTISRDNAKNSLYLQMNSLRAEDTALYYCAKDSPYGDFFDYWGQGTLVTVSS
VL 1: DIVMTQSPDSLAVSLGERATINCKSSQTVFYSSNNKNYLAWYQQKPGQPPKLLISWASTRKSGVPDRFSGSGSGTDFTLTVSSLQAEDVAVYYCQHYYSTPYTFGQGTKLEIK
VH 2: EVQLVESGGGLVQPGGSLRLSCAASGFTFNTYAMNWVRQAPGKGLEWVARIRSKYNNYATYYAASVKGRFTISRDDSKNSLYLQMNSLKTEDTAVYYCARHGNFGNSYVSWFAYWGQGTLVTVSS
VL 2: QTVVTQEPSLTVSPGGTVTLTCRSSTGAVTTSNYANWVQQKPGQAPRGLIGGTNKRAPGTPARFSGSLLGGKAALTLSGVQPEDEAEYYCALWYSNLWVFGGGTKLTVL
B8 was tested. Which “T cell activation EC50” value [1] did it give?
The value was 20 pM.

What about the “CD33^+ CD14^+ Killing EC50” value [2] of the same binder?
Its value is 890 pM.

And the “Primary AML Cell Killing EC50” value [3]?
Its value is 672 pM.

And the “CD33^+ CD14^+ Killing EC50” value [4]?
The value was 506 pM.

And the “MOLM13 Killing EC50” value [4]?
The value was 671 pM.
